Reference: the DeepSol protein solubility set

Assay: soluble on expression in E. coli; label from the status in PepcDB or PDB records
For “MSLTMKDVALEAGVSVGTVSRVINKEKGIKEVTLRKVQRAIKTLDYIPDNYARGMKKNRTETIALIIPSIWHPFFSEFAYHVEKELLKYNYKLFICNADSDSQNEIEYIEMLKQNKVDGIIGITYSDIDKYILSDLPFVSIDRHFSENVCYVTSANYKGGQTAAEELVRRDNKHLAFIGSINMYENETILRSKGFREKAKELGVDVYNFEMKEPLINPEDQIRIFLQSHKEIDGIFTINDMMALRVISVMKELGKIAPDDYQIIGFDGLKTSVDQSYLVSTIVQDIGMMAKESVAMILKMIKREEILEKRIVIPTYFWGDKTTKKEGHHHHHH”, the “soluble on expression in E. coli” value was “soluble”. In the case of “MKGKITLFFTALCFGLTGCIAPPKGLEKERFSINSYREISPQDLTCHCKTVRLGGKIVNTTVLANQTKIEVLSLPVSSISAKPFVELQSDGRFIVYFNGFVEPENLKERYITVGGQLAGTEKGKIEQADYTYPVVQADKYRIWTLSTTYDYPTDDWDEDDDWGFFRWRHRLWYVQPEIHYYLN”, the “soluble on expression in E. coli” value is reported as “not soluble”. For “MDSETLPESEKYNPGPQDFLLKMPGVNAKNCRSLMHHVKNIAELAALSQDELTSILGNAANAKQLYDFIHTSFAEVVSKGKGKK”, the “soluble on expression in E. coli” value was “soluble”. In the case of “MTETIKVSESLELHAVAENHVKPLYQLICKNKTWLQQSLNWPQFVQSEEDTRKTVQGNVMLHQRGYAKMFMIFKEDELIGVISFNRIEPLNKTAEIGYWLDESHQGQGIISQALQALIHHYAQSGELRRFVIKCRVDNPQSNQVALRNGFILEGCLKQAEFLNDAYDDVNLYARIIDSQ”, the “soluble on expression in E. coli” value is reported as “soluble”. In the case of “MAEVKKSNAPEFKGAETLYLIDIPQPDGKTTKTVRFFNQTSGSRSIEAGEIELKTKDKSGSDYGDVTQSASIEGICTEGDEGLDYVEEAILNKVLVRIHEVNLRSATASEFKVKSGTYMLNSLELSHENEEYSKYSIGLKLNGKISKGTLNKVPEGAPSGDVATPGTE”, the “soluble on expression in E. coli” value is reported as “not soluble”. In the case of “MGSDKIHHHHHHMEIIAHRGFRGRYPEMTAQAYEKACELPIHGVECDVRLTADGHLACVHDRTLLRIASCGLVVSTATMDQLREHGIITLDELIDILPEDKHLYIETKHPMRYGVMAEEQVALRLRYRGLLHDPRFHLISFSHAAIRRMGRIAPGFDTIYLRREWELRYNPKDFAISRPSAWGLSLAHAKIRPQLIGRDGKKTYMWTVNDADDVRWARDNGVQLLATDYPDVALEALAQ”, the “soluble on expression in E. coli” value is reported as “not soluble”. With “MMEVRINKFLSEAGVASRRKAEKLILEGRVKVNGEVVRSLGVKVNPEVDIVEVDGKPVKPQRKRYIILNKPCCYLTQLGRSPDGRKTIEELIKDIPERVFPVGRLDYNTEGLLILTNDGELANRILHPRYKLPKVYLALVEGKVDQKTLKRMKQGIELEDGFAKPDNIRIVRYEGKNTLLEITFHEGRKHLVKRFLGAFGHKVKRLKRIAIGPIKLGKLSPGKWRELNQGELAQLFKAVGLKYVPRKRRLEHHHHHH” the “soluble on expression in E. coli” value was “soluble”. With “MAVDAVGRQKTIQEIIDSTTNKSTQRNTGELGKDEFLNLLITQLQYQDPLNPVDDKEFISQMAQFSALEQMQNLNKSFSATKAFGMIGKYITGTTSNGSDSGAGFVEGIVRSVKMENGKILLEVNGLDVPVDNVLSVSEESNYYYKYNSSNISQYTGIIGYEVSGSVYDPSTGDIVGVSGIVREIQKGIYEDYAVMDGVEVIISGIDTEFNSADPNFRKDYLTENVGQGVSLIITDAYGYGFKVPVTGVLKDFKIAPNGKIIGILDGVYVPVDSISNIKKPSANTGAADGTNENPQVEQSQTEESQVEEPQVGEPRDEESDSV” the “soluble on expression in E. coli” value was “soluble”. In the case of “GMPQTLKPDTPAGTPAAGAVAFRRQVLPQDALLVRRVVESTGFFTPEEADVAQELVDEHLMHGAACGYHFVFATEDDDMAGYACYGPTPATEGTYDLYWIAVAPHRQHSGLGRALLAEVVHDVRLTGGRLLFAETSGIRKYAPTRRFYERAGFSAEAVLKAFYRAGDDKIIYRLEVA”, the “soluble on expression in E. coli” value is reported as “soluble”. In the case of “AVNEENIMIPKGVEVYEITGPYFFGIATKFEETMAQLGDRPNVRIIRMRKVPFIDSTGIHNLTTLCEMSQKEKITVILSGVNEKVYKVLEKSGFYELLGKENICPNFKIALDRAEEVMK”, the “soluble on expression in E. coli” value is reported as “soluble”. For “MGSSHHHHHHSSGLVPRGSHMASEVDKRREINNEHPLLMMPLYANGEEFNQGKYTFWGGDTLTGKWENIPDDLKPYTVIQLHPDDLPKRDGAARDFYEHMLEEAAKYVNPKTGKNEPIPVILTVYTAGNMPYYTSAHWLSTSWIDKMYQKYPNLHGIFSTANYWIWANDIENKAADYLKVSAKNGGYFIWAEQNNGSAIEKAFGKNGKIAFQKSVDKYWKNLIFMFKNTPAAEGNDSTTESYMKGLWLSNHTYQWGGLMDTWKWYETGKWKLFASGNIGKSQGDRQWLTEPESMLGEEALGVYLNGGVVYNFEHPAYTYGVNNKESLLFSEVIKEFFRYVIAHPAPSKEKVLEDTKVFIHGDYSNKGNGKFFVNVNTDREQTPLYMTGRYNVIPAIPGVLKTDKLKESVSSSRIQIKEITSPEFSSTQARKEYLNKLYPMNYEGDIFAQKLDNRWFVYNYKVNENVKQTGKLKFNSLEMNVEFEPHTYGIFERISNGLKVNLNNFRTNKDSLWSNAQDANQAKKLPQLTKKGAIKWIEEHYIKDTQFGEKRVTKIVLRGIDKLPTIHSLSGTNNSYDQPSLNFDQKNHMVTITINSNGNLEFELHF”, the “soluble on expression in E. coli” value was “soluble”. With “MGSDKIHHHHHHMRALLSGYYGKGNGGDEALLATLLQMLPSHVTPVVLSGNPEETSDRYGVESHNRMSLTSVLPALRSCDAFIWGGGSLIQDVTSSISPFYYGGLMALAQKMGLKTVAWAQGIGPLVRPQTRWLAQHNFSGCTTVSVRDRVSAALLADWQIPYILAPDPVWALQAKPFPELANLPTPRIAVTLRNHPQLTAPRLANLTQALVSLQKSTQAFILLLPFQKSEDLAIAQAIQPQLKDVSEIVCIEDPQILKGVFRGVEMAIGMRLHSLIMAASEGCRCFALSYDPKINRLMEDLAIPGWDLANLPDNANVISKTWIDFYTNAQPLASEKITTLVEGAFMHRELLRKALGRIN” the “soluble on expression in E. coli” value was “not soluble”. For “MFGFGGFTRDLGIDLGTANTLVYVKGKGVVLREPSVVALQTDTKQIVAVGSDAKQMIGRTPGNVVALRPMKDGVIADYETTATMMKYYIQQAQKSNGFFSRKPYVMVCVPSGITAVERRAVIDATRQAGARDAYPIEEPFAAAIGANLPVWEPTGSMVVDIGGGTTEVAIISLGGIVTSQSVRVAGDDMDDSIIQYIKKSYNLMIGERTAEALKLEIGSAGEPEGIEPMEIRGRDLVSGLPKTVLIQPEEIADALKDTVDAIVESVKNTLEKTPPELAADIMDRGIVLTGGGALLRNLDKVISEETNMPVLVAEDPLDCVAIGTGKALDNIDLFKTAAR”, the “soluble on expression in E. coli” value was “not soluble”. In the case of “MIIRIKHYGEVKIEDSKNLLLNLIENRIGIDNICNGKGTCGKCKVRFRQGVPEATSADLRYLSVEELEEGVRLACQVKPQKGMEIDVTLSNSFDRKNTVLEHHHHHH”, the “soluble on expression in E. coli” value is reported as “not soluble”. With “MSRIIMLIPTGTSVGLTSVSLGVIRAMERKGVRLSVFKPIAQPRTGGDAPDQTTTIVRANSSTTTAAEPLKMSYVEGLLSSNQKDVLMEEIVANYHANTKDAEVVLVEGLVPTRKHQFAQSLNYEIAKTLNAEIVFVMSQGTDTPEQLKERIELTRNSFGGAKNTNITGVIVNKLNAPVDEQGRTRPDLSEIFDDSSKAKVNNVDPAKLQESSPLPVLGAVPWSFDLIATRAIDMARHLNATIINEGDINTRRVKSVTFCARSIPHMLEHFRAGSLLVTSADRPDVLVAACLAAMNGVEIGALLLTGGYEMDARISKLCERAFATGLPVFMVNTNTWQTSLSLQSFNLEVPVDDHERIEKVQEYVANYINADWIESLTATSERSRRLSPPAFRYQLTELARKAGKRIVLPEGDEPRTVKAAAICAERGIATCVLLGNPAEINRVAASQGVELGAGIEIVDPEVVRESYVGRLVELRKNKGMTETVAREQLEDNVVLGTLMLEQDEVDGLVSGAVHTTANTIRPPLQLIKTAPGSSLVSSVFFMLLPEQVYVYGDCAINPDPTAEQLAEIAIQSADSAAAFGIEPRVAMLSYSTGTSGAGSDVEKVREATRLAQEKRPDLMIDGPLQYDAAVMADVAKSKAPNSPVAGRATVFIFPDLNTGNTTYKAVQRSADLISIGPMLQGMRKPVNDLSRGALVDDIVYTIALTAIQSAQQQ” the “soluble on expression in E. coli” value was “soluble”. For “MNPIASNSAVTLHFTIKLKDGSVADSTHNQGKPAKLVMGDGSLSPNFEQCLLGMLPGEKKSVALAAQDAFGAPNPDHVHYMDRSKFLGGDLQLEVGTIMAFSGPDGMEIPGIITEIAGDSVTVDFNHPLAGQDITFDVEILSVE”, the “soluble on expression in E. coli” value was “not soluble”.
